Reference: article PMC3320612, “Structural Basis of Cytotoxicity Mediated by the Type III Secretion Toxin ExoU from Pseudomonas aeruginosa” (PLoS Pathogens, 2012)
Values joined by “and” are separate entries in the source; they are usually repeats but may differ in a detail not shown here. Identical values can stand only once.

Experiments:
[1] = molecular target: ExoU(30–687) (Pseudomonas aeruginosa (clinical strain, GESPA 1999 collection)) (UniProt O34208); experiment: native MS; purified ExoU∶SpcU complex, 15 µM in 20 mM ammonium acetate, electrospray, positive mode, Micro-TOF-Q
[2] = molecular target: the molecule itself; experiment: crystal structure; co-expressed, co-purified ExoU(30–687)∶SpcU(1–127) complex; crystals in 0.1 M KNO3, 20% PEG 3350; SAD on the selenium edge, C2 cell, 2.94 Å

| Molecule | stoichiometry N (SpcU per ExoU (printed as ExoU∶SpcU)) [1] | binding result [2] |
| --- | --- | --- |
| SpcU(1–127) (from UniProt O66100 1-127) (domain or fragment) | 1 and 2 | – |
| SpcU(1–127) (domain or fragment, selenomethionine in the crystals (SAD on the selenium edge), SpcU, type IA T3SS chaperone of ExoU, Pseudomonas aeruginosa; full length is 1-137; stop codon introduced after residue 127; amplified from a clinical strain (GESPA 1999 collection); also called chaperone SpcU) MIDTWLAQWGLRLPSSNDATLRLQPAEGPELVMERLEGGWLFVVELGLVPSGLPLGVILQLLQVNSPFSSLAPVKLAADDAGRLVLWAEARDGVDDVDALNRLHDRLREGHSRLVPLLEPTGELVPA | – | binds |
